Measured values taken from US20220096653A1, “CONJUGATE COMPRISING LIGAND AND CEACAM5 ANTIBODY FAB FRAGMENT” (ASTELLAS PHARMA INC., priority 2019, published 2022).

B1: [Gd/DOTA-NH—CH2-(1,3-Ph)-C(═O)-Asp-Gly-Lys*-Z2(#N)]p-Fab^2 (conjugate)
heavy: EVQLVESGGGLVQPGGSLRLSCAASGFNIRDTYMHWVRQAPGKGLEWVARIDPANGNSRYVPKFQGRFTISADTSRNTAYLQMNSLRAEDTAVYYCAPFGYYVSDYAMAYWGQGTLVTVSSASTKGPSVFPLAPSSKSTSGGTAALGCLVKDYFPEPVTVSWNSGALTSGVHTFPAVLQSSGLYSLSSVVTVPSSSLGTQTYICNVNHKPSNTKVDKKVEPKSCD
light: DIQLTQSPSSLSASVGDRVTITCRAGESVDIFGVGFLHWYQQKPGKAPKLLIYRASNLESGIPSRFSGSGSRTDFTLTISSLQPEDFATYYCQQTNEDPYTFGQGTKVEIKRTVAAPSVFIFPPSDEQLKSGTASVVCLLNNFYPREAKVQWKVDNALQSGNSQESVTEQDSKDSTYSLSSTLTLSKADYEKHKVYACEVTHQGLSSPVTKSFNRGEC
B2: [Gd/DOTA-NH—CH2-(1,3-Ph)-C(═O)-Met-Gly-Lys*-Z2(#N)]p-Fab^2 (conjugate)
heavy: B1 heavy
light: B1 light
B3: [Gd/DOTA-NH—(CH2CH2O)3—CH2—C(═O)—NH—CH2-(1,3-Ph)-C(═O)-Gly-Lys*-Z2(#N)]p-Fab^2 (conjugate)
heavy: B1 heavy
light: B1 light
B4: [Gd/DOTA-NH-CH2-(1,4-Ph)-NH-C(═O)-Met-Ile-NH-(CH2)2-Z1(#N)]p-Fab^5 (Fab, V domains shown)
VH: QVQLVQSGAEVKKPGASVKVSCKASGYTFTNYGLSWVRQAPGQGLEWMGENHPGSGIIYHNEKFRGRVTLTADRSTSTAYMELSSLRSEDTAVYYCARSSGTRGFDYWGQGTLVTVSS
VL: DVVMTQTPLSLSVTPGQPASISCRSSQSIVHSNGNTYLEWYLQKPGQSPQLLIYRVSNRFSGVPDRFSGSGSGTDFTLKISRVEAEDVGVYYCFQGSHGPWTFGQGTKLEIKR
modifications: labeling may sit on this chain; sites not stated; labeling portion (MW 1074) on amino groups of the Fab, sites and chain not stated; 1-2 per Fab by MS; Gln 1 pyroglutamic acid as Fab^5 is defined in paragraph 370
B5: Ex-No 102, conjugate of Fab^5 (structure given only as drawing CHEM-US-00161) (Fab, V domains shown)
VH: B4 VH
VL: B4 VL
modifications: labeling may sit on this chain; sites not stated; low molecular weight molecule (MW 1278) bound to the Fab, sites and chain not stated; 1-2 per Fab by MS; Gln 1 pyroglutamic acid as Fab^5 is defined in paragraph 370
B6: Ex-No 103, conjugate of Fab^5 (structure given only as drawing CHEM-US-00162) (Fab, V domains shown)
VH: B4 VH
VL: B4 VL
modifications: labeling may sit on this chain; sites not stated; low molecular weight molecule (MW 1115) bound to the Fab, sites and chain not stated; 1-2 per Fab by MS; Gln 1 pyroglutamic acid as Fab^5 is defined in paragraph 370
B7: Ex-No 105, conjugate of Fab^5 (structure given only as drawing CHEM-US-00163) (Fab, V domains shown)
VH: B4 VH
VL: B4 VL
modifications: labeling may sit on this chain; sites not stated; low molecular weight molecule (MW 1190) bound to the Fab, sites and chain not stated; 1-3 per Fab by MS; Gln 1 pyroglutamic acid as Fab^5 is defined in paragraph 370
B8: Ex-No 106, conjugate of Fab^5 (structure given only as drawing CHEM-US-00164) (Fab, V domains shown)
VH: B4 VH
VL: B4 VL
modifications: labeling may sit on this chain; sites not stated; low molecular weight molecule (MW 1380) bound to the Fab, sites and chain not stated; 1-3 per Fab by MS; Gln 1 pyroglutamic acid as Fab^5 is defined in paragraph 370
B9: (Y-S1-X)p-Fab^2 with Y Gd/DOTA, S1 spacer (h), X -Met-Gly-Lys*-Z2(#N)- (Fab, V domains shown)
VH: EVQLVESGGGLVQPGGSLRLSCAASGFNIRDTYMHWVRQAPGKGLEWVARIDPANGNSRYVPKFQGRFTISADTSRNTAYLQMNSLRAEDTAVYYCAPFGYYVSDYAMAYWGQGTLVTVSS
VL: DIQLTQSPSSLSASVGDRVTITCRAGESVDIFGVGFLHWYQQKPGKAPKLLIYRASNLESGIPSRFSGSGSRTDFTLTISSLQPEDFATYYCQQTNEDPYTFGQGTKVEIKR
modifications: labeling may sit on this chain; sites not stated; labeling portion (MW 1090) on amino groups of the Fab, sites and chain not stated; 1-2 per Fab by MS
notes: also called Ex-No 43; conjugate 43
B10: (Y-S1-X)p-Fab^2 with Y Gd/DOTA, S1 -NH-(CH2CH2O)3-CH-C(═O)-NH-CH2-(1,3-Ph)-C(═O)-, X -Gly-Lys*-C(═S)-NH-(1,4-Ph)-NH-C(═S)- (Fab, V domains shown)
VH: B9 VH
VL: B9 VL
modifications: labeling may sit on this chain; sites not stated; labeling portion (MW 1259) on amino groups of the Fab, sites and chain not stated; 1-3 per Fab by MS
notes: also called Ex-No 44; conjugate 44
B11: (Y-S1-X)p-Fab^2 with Y Gd/4arm-DOTA, S1 -CH2-(1,4-Ph)-NH-C(═S)-, X -Gly-Tyr-Lys*-Z2(#N)- (Fab, V domains shown)
VH: B9 VH
VL: B9 VL
modifications: labeling may sit on this chain; sites not stated; labeling portion (MW 1153) on amino groups of the Fab, sites and chain not stated; 1-2 per Fab by MS
notes: also called Ex-No 56; conjugate 56
B12: (Y-S1-X)p-Fab^2 with Y Gd/DOTA, S1 spacer (p), X -Met-Gly-Lys*-Z2(#N)- (Fab, V domains shown)
VH: B9 VH
VL: B9 VL
modifications: labeling may sit on this chain; sites not stated; labeling portion (MW 1079) on amino groups of the Fab, sites and chain not stated; 1-3 per Fab by MS
notes: also called Ex-No 57; conjugate 57
B13: (Y-S1-X)p-Fab^2 with Y Gd/DOTA, S1 - (bond), X -Gly-Tyr*-CH2-C-(═O)-Lys*-Z2(#N)- (Fab, V domains shown)
VH: B9 VH
VL: B9 VL
modifications: labeling may sit on this chain; sites not stated; labeling portion (MW 1046) on amino groups of the Fab, sites and chain not stated; 1-3 per Fab by MS
notes: also called Ex-No 4; conjugate 4
B14: (Y-S1-X)p-Fab^2 with Y Gd/DOTA, S1 spacer (k), X -Met-Gly-Lys*-Z2(#N)- (Fab, V domains shown)
VH: B9 VH
VL: B9 VL
modifications: labeling may sit on this chain; sites not stated; labeling portion (MW 1296) on amino groups of the Fab, sites and chain not stated; 1-2 per Fab by MS
notes: also called Ex-No 46; conjugate 46

How the values were obtained:
[1] = mouse, in vivo
Experimental: A Gd-labeled conjugate of the conjugate containing a peptide linker produced in one of the above Examples was administered from the tail vein of mice (BALB/c or BALB/c nu/nu) so that the protein mass was 0.02 mg (100 μL) per animal. After about 24 hours, the mice were sacrificed and the kidneys were removed, and the amount of Gd in the kidneys was measured using ICP-MS. The present test was carried out in 3 cases in each group, the mean value of the 3 cases was calculated, and the amount of Gd contained per kidney after administration was shown as a percentage (% of dose/tissue) of the total amount of Gd administered.
Based on the percentage of the control conjugate (% of dose/tissue), the proportion of decrease in the amount of Gd contained in the kidneys of each of the conjugates having a peptide linker was determined and shown in Table 28.

[2] = biological target: human cancer-specific MUC1 peptide (PTL 1) (human); assay: ELISA on immobilised human cancer-specific MUC1 peptide, 4-parameter fit, duplicate (Example 6-2)
[3] = biological target: T1, CEACAM5 (R&D Systems, 4128-CM-050) (human, UniProt P06731 35-685); assay: ELISA on immobilised CEACAM5, 4-parameter fit, duplicate
T1 construct: Immobilised on the ELISA plate; also called human CEACAM5
T1 sequence (looked up): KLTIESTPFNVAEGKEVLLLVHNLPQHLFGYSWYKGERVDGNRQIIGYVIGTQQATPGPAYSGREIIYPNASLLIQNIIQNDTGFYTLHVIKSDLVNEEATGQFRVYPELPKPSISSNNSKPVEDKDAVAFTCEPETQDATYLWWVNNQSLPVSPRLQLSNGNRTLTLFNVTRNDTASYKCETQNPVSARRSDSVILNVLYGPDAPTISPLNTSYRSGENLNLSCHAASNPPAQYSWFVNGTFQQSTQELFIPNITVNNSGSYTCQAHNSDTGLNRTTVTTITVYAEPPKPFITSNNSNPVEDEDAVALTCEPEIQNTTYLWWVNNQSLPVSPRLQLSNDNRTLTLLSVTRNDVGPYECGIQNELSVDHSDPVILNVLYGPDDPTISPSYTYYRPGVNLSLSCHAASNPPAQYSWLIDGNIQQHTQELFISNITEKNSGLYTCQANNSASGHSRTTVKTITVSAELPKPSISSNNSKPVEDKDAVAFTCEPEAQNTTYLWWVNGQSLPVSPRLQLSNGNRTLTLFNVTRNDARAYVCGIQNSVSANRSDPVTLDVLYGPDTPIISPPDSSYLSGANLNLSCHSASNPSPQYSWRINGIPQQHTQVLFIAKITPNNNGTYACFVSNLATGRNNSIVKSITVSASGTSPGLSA
Experimental: Each anti-human CEACAM5 antibody Fab fragment conjugate prepared in Example 2 was subjected to ELISA to evaluate the binding activity thereof to CEACAM5. In the present test, a phosphate buffer (Nacalai Tesque Inc., 0.1 mol/L-Phosphate Buffer Solution (pH 7.2)) prepared to 10 mM by diluting 10-fold with distilled water was used as a solvent for an antigen immobilization liquid, and 20×PBS/Tween 20 Buffer (Thermo Fisher Scientific Inc., 28352) diluted 20-fold with distilled water was used as a wash liquid. In addition, for bovine serum albumin (BSA) used in the present test, 30% Bovine Serum Albumin solution (Sigma-Aldrich, Inc., A9576-50ML) was added in an appropriate proportion for use. CEACAM5 (R&D Systems, 4128-CM-050) was diluted with a 10 mM phosphate buffer (pH 7.2) to 0.1 μg/mL, and added to a Nunc MaxiSorp White 384 plate (Nunc, 4603272) at 30 μL per well, and the plate was incubated overnight at 4° C. for immobilization. The CEACAM5 immobilization liquid was removed by reverse centrifugation, and then blocking was carried out by adding a PBS/Tween 20 buffer containing 5.0% BSA. Thereafter, the blocking solution was removed by reverse centrifugation, a solution of each CEACAM5 antibody Fab² fragment conjugate described above or a Fab² fragment having no labeling portion (PB009-01) as a control at about 10000 ng/mL was diluted in 14 steps by 3-fold dilution using a PBS/Tween 20 buffer containing 1.0% BSA, and 30 μL was added per well and incubated at room temperature for 60 minutes. The plate was washed 3 times with a PBS/Tween 20 buffer, and Horseradish Peroxidase (HRP)-labeled goat anti-human IgG (H+L chain) antibody (MBL Life Sciences, 206) diluted 1000-fold using a PBS/Tween 20 buffer containing 5.0% BSA was added at 30 μL per well and incubated at room temperature for 30 minutes. The plate was washed 3 times with a PBS/Tween 20 buffer, and ECL Prime Western Blotting DETECTION Reagent (GE Healthcare, RPN2232) as a substrate was added at 30 μL per well. The substrate was incubated at room temperature for 15 minutes, and then a signal value thereof was measured using an Envision counter (PerkinElmer, Inc.).
The test for each antibody was carried out in duplicate, and an EC₅₀ value was calculated using a 4-parameter logistic curve model.

Molecule | EC50 [2] | EC50 [3] | other results
B1 | – | – | % of dose/tissue (amount of Gd contained per kidney) [1]: 14.8 % of dose/tissue; Proportion of decrease (amount of Gd contained in the kidneys) [1]: 52.2%
B2 | – | – | % of dose/tissue (amount of Gd contained per kidney) [1]: 15.4 % of dose/tissue; Proportion of decrease (amount of Gd contained in the kidneys) [1]: 50.3%
B3 | – | – | % of dose/tissue (amount of Gd contained per kidney) [1]: 17.1 % of dose/tissue; Proportion of decrease (amount of Gd contained in the kidneys) [1]: 44.8%
B4 | 0.08 nM | – | –
B5 | 0.07 nM | – | –
B6 | 0.08 nM | – | –
B7 | 0.11 nM | – | –
B8 | 0.1 nM | – | –
B9 | – | 0.23 nM | –
B10 | – | 0.29 nM | –
B11 | – | 0.26 nM | –
B12 | – | 0.29 nM | –
B13 | – | 0.15 nM | –
B14 | – | 0.22 nM | –
